Assay results taken from paper PMC10397247.

Key:
O2-bA = molecular target: T1, O2-bA; test: two-hybrid library CCNG1;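 also: natural log of median RNA to DNA barcode read ratio; higher means stronger binding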
T1 chain: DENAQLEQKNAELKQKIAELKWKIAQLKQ

O3-bA = molecular target: T2, O3-bA; test: two-hybrid library CCNG1;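 also: natural log of median RNA to DNA barcode read ratio; higher means stronger binding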
T2 chain: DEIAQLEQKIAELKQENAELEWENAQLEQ

O4-bA = molecular target: T3, O4-bA; test: two-hybrid library CCNG1;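 also: natural log of median RNA to DNA barcode read ratio; higher means stronger binding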
T3 chain: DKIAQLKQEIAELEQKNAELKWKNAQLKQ

O5-bA = molecular target: T4, O5-bA; test: two-hybrid library CCNG1;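 also: natural log of median RNA to DNA barcode read ratio; higher means stronger binding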
T4 chain: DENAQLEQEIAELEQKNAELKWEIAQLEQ

O6-bA = molecular target: T5, O6-bA; test: two-hybrid library CCNG1;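 also: natural log of median RNA to DNA barcode read ratio; higher means stronger binding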
T5 chain: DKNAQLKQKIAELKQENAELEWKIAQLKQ

O7-bA = molecular target: T6, O7-bA; test: two-hybrid library CCNG1;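 also: natural log of median RNA to DNA barcode read ratio; higher means stronger binding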
T6 chain: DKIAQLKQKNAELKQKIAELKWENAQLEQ

O8-bA = molecular target: T7, O8-bA; test: two-hybrid library CCNG1
T7 chain: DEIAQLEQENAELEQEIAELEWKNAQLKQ

O9-bA = molecular target: T8, O9-bA; test: two-hybrid library CCNG1
T8 chain: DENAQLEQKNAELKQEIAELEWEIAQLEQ

P8A-bS = molecular target: T9, P8A-bS; test: two-hybrid library CCNG1
T9 chain: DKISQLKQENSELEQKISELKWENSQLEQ

P9A-bS = molecular target: T10, P9A-bS; test: two-hybrid library CCNG1
T10 chain: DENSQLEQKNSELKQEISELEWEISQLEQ

P9mS = molecular target: T11, P9mS; test: two-hybrid library CCNG1
T11 chain: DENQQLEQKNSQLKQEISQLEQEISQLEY

O3 = molecular target: T12, O3; test: two-hybrid library CC0; conditions: mean of both orientations
T12 chain: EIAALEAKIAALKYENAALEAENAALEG

O4 = molecular target: T13, O4; test: two-hybrid library CC0; conditions: mean of both orientations
T13 chain: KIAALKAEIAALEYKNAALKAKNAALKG

O5 = molecular target: T14, O5; test: two-hybrid library CC0; conditions: mean of both orientations
T14 chain: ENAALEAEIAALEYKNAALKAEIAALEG

O6 = molecular target: T15, O6; test: two-hybrid library CC0; conditions: mean of both orientations
T15 chain: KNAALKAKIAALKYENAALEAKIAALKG

O7 = molecular target: T16, O7; test: two-hybrid library CC0; conditions: mean of both orientations
T16 chain: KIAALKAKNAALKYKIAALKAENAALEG

O8 = molecular target: T17, O8; test: two-hybrid library CC0; conditions: mean of both orientations
T17 chain: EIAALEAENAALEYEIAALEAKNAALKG

O9 = molecular target: T18, O9; test: two-hybrid library CC0; conditions: mean of both orientations
T18 chain: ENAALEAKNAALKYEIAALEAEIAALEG

4H2673-bA = molecular target: T19, 4H2673-bA; test: two-hybrid library CCNG1
T19 chain: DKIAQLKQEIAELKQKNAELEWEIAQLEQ

4H2702-bA = molecular target: T20, 4H2702-bA; test: two-hybrid library CCNG1
T20 chain: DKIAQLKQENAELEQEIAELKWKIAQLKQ

4H3010-bA = molecular target: T21, 4H3010-bA; test: two-hybrid library CCNG1
T21 chain: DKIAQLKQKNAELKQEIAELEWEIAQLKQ

4H3112-bA = molecular target: T22, 4H3112-bA; test: two-hybrid library CCNG1
T22 chain: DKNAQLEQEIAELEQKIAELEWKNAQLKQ

4H3427-bA = molecular target: T23, 4H3427-bA; test: two-hybrid library CCNG1
T23 chain: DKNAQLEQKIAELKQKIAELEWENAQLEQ

4H346-bA = molecular target: T24, 4H346-bA; test: two-hybrid library CCNG1
T24 chain: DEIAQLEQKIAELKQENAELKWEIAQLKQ

4H3926-bA = molecular target: T25, 4H3926-bA; test: two-hybrid library CCNG1
T25 chain: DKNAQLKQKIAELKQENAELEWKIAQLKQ

4H4073-bA = molecular target: T26, 4H4073-bA; test: two-hybrid library CCNG1
T26 chain: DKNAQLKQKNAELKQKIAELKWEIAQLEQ

4H457-bA = molecular target: T27, 4H457-bA; test: two-hybrid library CCNG1
T27 chain: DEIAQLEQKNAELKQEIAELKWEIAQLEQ

4H575-bA = molecular target: T28, 4H575-bA; test: two-hybrid library CCNG1
T28 chain: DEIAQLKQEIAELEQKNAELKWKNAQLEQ

4H683-bA = molecular target: T29, 4H683-bA; test: two-hybrid library CCNG1
T29 chain: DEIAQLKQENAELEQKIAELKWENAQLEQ

4H754-bA = molecular target: T30, 4H754-bA; test: two-hybrid library CCNG1
T30 chain: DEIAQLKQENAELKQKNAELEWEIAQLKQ

4H780-bA = molecular target: T31, 4H780-bA; test: two-hybrid library CCNG1
T31 chain: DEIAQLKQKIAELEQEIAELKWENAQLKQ

4H797-bA = molecular target: T32, 4H797-bA; test: two-hybrid library CCNG1
T32 chain: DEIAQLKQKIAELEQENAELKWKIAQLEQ

4H855-bA = molecular target: T33, 4H855-bA; test: two-hybrid library CCNG1
T33 chain: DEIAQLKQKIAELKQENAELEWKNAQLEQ

4H918-bA = molecular target: T34, 4H918-bA; test: two-hybrid library CCNG1
T34 chain: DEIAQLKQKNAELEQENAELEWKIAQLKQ

4H953-bA = molecular target: T35, 4H953-bA; test: two-hybrid library CCNG1
T35 chain: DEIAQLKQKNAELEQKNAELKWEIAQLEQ

4H968-bA = molecular target: T36, 4H968-bA; test: two-hybrid library CCNG1
T36 chain: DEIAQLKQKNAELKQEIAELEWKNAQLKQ

P7A-bS = molecular target: T37, P7A-bS; test: two-hybrid library CCNG1
T37 chain: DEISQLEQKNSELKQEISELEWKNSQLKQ

DENAQLEQKNAELKQKIAELKWKIAQLKQ [O2-bA] was tested, and the interaction score (O2-bA) was -0.405, the interaction score (O3-bA) was -0.0372 and the interaction score (O4-bA) was -0.35. The interaction score (O5-bA) was 0.59, the interaction score (O6-bA) was -0.5 and the interaction score (O7-bA) was -0.0715. The interaction score (O8-bA) was 0.682 and the interaction score (O9-bA) was 1.

DKISQLKQENSELEQKISELKWENSQLEQ [P8A-bS] was tested, and the interaction score (P8A-bS) was -0.428 and the interaction score (P9A-bS) was -0.26.

Binder DENQQLEQKNSQLKQEISQLEQEISQLEY [P9mS] has an interaction score (P9mS) of -1.32.

EIAALEAKIAALKYENAALEAENAALEG [O3] was tested, and the interaction score (O3) was -2.75, the interaction score (O4) was 1.48 and the interaction score (O5) was -2.78. It also gave an interaction score (O6) of -2.66, an interaction score (O7) of -2.77 and an interaction score (O8) of -2.58. It also gave an interaction score (O9) of -2.71.

DKIAQLKQEIAELKQKNAELEWEIAQLEQ [4H2673-bA] showed an interaction score (4H2673-bA) of 0.275, an interaction score (4H2702-bA) of -1.01 and an interaction score (4H3010-bA) of 2. The interaction score (4H3112-bA) was -0.873, the interaction score (4H3427-bA) was -1.17 and the interaction score (4H346-bA) was -0.931. For the same binder, the interaction score (4H3926-bA) was 1.58, the interaction score (4H4073-bA) was 0.202 and the interaction score (4H457-bA) was -1.45. For the same binder, the interaction score (4H575-bA) was 0.276, the interaction score (4H683-bA) was -0.575 and the interaction score (4H754-bA) was -0.889. For the same binder, the interaction score (4H780-bA) was -1.03, the interaction score (4H797-bA) was -2.16 and the interaction score (4H855-bA) was 0.000366. The interaction score (4H918-bA) was -0.235, the interaction score (4H953-bA) was -0.927 and the interaction score (4H968-bA) was -0.811.

DEISQLEQKNSELKQEISELEWKNSQLKQ [P7A-bS] was tested, and the interaction score (P7A-bS) was -1.32, the interaction score (P8A-bS) was 0.493 and the interaction score (P9A-bS) was -0.768.
